“Also recorded” adds a separate entry of the source. Ends that are not written are not given here. Peptide text beside a SMILES is read from it.
Tests used:
[1] = Kinetics of disulfide formation, oxidation by air (Ellman's assay); type: physicochemical; conditions: 12 mM in water, capped tubes, room temperature, after 5 days
Description: For oxidation by air, LK6C dissolved in water at 12 mM was left in capped micro-centrifuge tubes at room temperature. […] H2O2-assisted oxidation was much more efficient in the formation of disulfide bridges.
(§1) For air oxidation, LK6C was dissolved in MilliQ water by vigorous vortexing for five minutes and dispensed into 20 μL aliquots. At appropriate time points, 180 μL of DTNB (Sigma, Singapore) working solution (4 mg/mL in 0.1M phosphate buffer pH 7.0) was mixed with the peptide solution for 15 minutes. Absorbance at 412 nm was then measured (InfiniteM200, Tecan, Switzerland). Using a calibration curve generated with L-cysteine (Sigma) as standard (R^2=0.999), the background-subtracted value was normalised to the reading at 0 hour to give the % of thiol remaining. For H2O2-assisted oxidation, LK6C was dissolved in water (HPLC grade, J. T. Baker, N.J., USA) containing 0.06% H2O2 (Merck, Sinagpore) and dispensed into aliquots. At appropriate time points, the aliquots were analysed using an Aquity® UPLC (Waters, USA) fitted with a single-quadrupole MS. Using a calibration curve generated with pure LK6C as standard (R^2=0.999), the area under the peak corresponding to LK6C monomer was normalised to that at 0 hour to give the % of thiol remaining.

[2] = Kinetics of disulfide formation, H2O2-assisted oxidation (UPLC); type: physicochemical; conditions: 12 mM in water containing 0.06% H2O2, after 1 day
Description: Only ˜50% of thiols remained after 1 day. The R^2 value of the thiol calibration curve was 1.000.
as §1

skins of guinea pigs = test: Direct contact Kligman maximization test (GLP, ISO 10993-10); type: in vivo; conditions: GLP study by CRO Toxikon
V79 = test: Direct contact V79 colony assay (GLP); type: cell-based; conditions: GLP study by CRO Toxikon
[3] = Oscillation rheology of cysteine-containing peptide gels (stiffness G', LVE limit); type: physicochemical
From the text: Oscillatory rheology was used to quantify the stiffness of IVKC gels formed in the presence of varying amount of H2O2 in PBS. Elastic modulus, G′, was plotted against angular frequency, ω (FIG. 45). As already mentioned in FIG. 41, the G′ value increased tremendously after crosslinking with 0.06% H2O2 in PBS. Further increasing the amount of H2O2 increased the G′ values even more. For instance, gels cross-linked completely with 0.2% H2O2 in PBS achieved a G′ value of nearly 1 MPa. This level of stiffness was not achieved before. Hereafter, IVKC gels will be prepared in the presence of 0.2% H2O2 in PBS. Data here was reported as average of 4 samples±standard deviation.
Rheology: The rheological properties of casted gels were measured with an ARES-G2 (TA Instruments, USA) using the oscillation method. Frequency-sweep studies were performed with ω=0-100 rad/s at strain, γ=0.1%. The gel stiffness was represented by plotting G′ against ω. Amplitude-sweep studies were performed beforehand at 1 Hz with γ=0-100%. The LVE limit of the gel was defined as the value of γ when G′ first dropped below 90% of the average initial value.
The rheological properties of casted gels were measured with an ARES-G2 (TA Instruments, USA) using the oscillation method. Frequency-sweep studies were performed with ω=0-100 rad/s at strain, γ=0.1%. The gel stiffness was represented by plotting G′ against ω. […]

[4] = Extent of crosslinking of IVKC by UPLC; type: physicochemical; conditions: 24 hours
Description: (§2) The crosslinking density of IVKC could be further modulated with H2O2 content. Ultra performance liquid chromatography (UPLC) was used to study the extent of crosslinking in IVKC after oxidation with varying amount of H2O2 in PBS for 24 hours. […] At 0.2% H2O2 in PBS for instance, IVKC was 100% crosslinked and none of the monomers remained.
as §2, with “can” for “could”, “be” for “be further”, “hours (FIG. 43). In the absence of H2O2, IVKC remained mostly as monomers (>96%).” for “hours.”, “cross-linked” for “crosslinked”
The crosslinking density of Ac-IVKC was modulated by varying the concentration of H2O2 (0-0.2%). The amount of monomeric (retention time-2.40 mins) and dimeric (˜2.67 mins) species were then quantified with ultra-performance liquid chromatography (UPLC) after incubation in the various H2O2 concentration for 24 hours at room temp (FIG. 43).

[5] = system: Human corneal endothelial cells (HCEC); test: Biocompatibility of cross-linked IVKC gels, calcein staining; type: cell-based; conditions: gels cross-linked with 0.2% H2O2 in PBS for 24 hours and purified
Description: To test the biocompatibility of cross-linked IVKC gels, a sensitive primary cell type was seeded onto the gels. IVKC gels were cross-linked with 0.2% H2O2 in PBS for 24 hours and excess H2O2 was purified from the gel using a dialysis-inspired method (as described in WO 2014/116187).
To test the biocompatibility of cross-linked IVKC gels, a sensitive primary cell type was seeded onto the gels. IVKC gels were cross-linked with 0.2% H2O2 in PBS for 24 hours and excess H2O2 was purified from the gel using a dialysis-inspired method reported previously, see e.g. WO 2014/116187. Human corneal endothelial cells (HCEC, a kind gift from Singapore Eye Research Institute) freshly derived from human donor corneas were then seeded onto the gel and maintained in culture.

[6] = Water soak of casted gels (shape retention / degradation); type: physicochemical; conditions: not oxidised, 24 hours of water soak
Description: Peptide was dissolved in 200 μL of water+/−H2O2 and filled into custom-made hollow ring casts (diameter ˜1 cm). The ring ends were sealed with parafilm to minimise evaporation and the cast was kept at 25° C. for 22 hours before further manipulations.
LK6 or LK6C gels were first casted and then soaked in water for various durations. […] These observations are also supported by rheological measurements (FIG. 28). Therefore, the strategy of disulfide crosslinking has increased the resistance of the gel to degradation and has made it possible to use the gel at a lower concentration compared to previous formulations. This, in turn, will translate into significant cost savings.

[7] = Concentration needed for gelation; type: physicochemical
Description: FIG. 18A illustrates the determination of a suitable gelation concentration with the LK6 control peptide sequence. A working concentration was established that was suitably low so as to save on material during testing but yet, capable of forming gels strong enough to be manipulated. LK6 gels were therefore casted at different concentrations and their stiffness was measured (average±s.d. of triplicates). As expected, G′ values increased with peptide concentration and it was determined that a working concentration of 12 mM afforded gels with sufficient mechanical integrity to withstand handling.
The present invention as defined above offers significant improvements in material properties such as stiffness, elasticity and resistance of the gel to degradation compared to previous disclosures—ultra-small peptide-based and peptide/polymer-based hydrogels. Reactive chemical groups are also introduced to the peptide fibers which allow the facile in-situ chemical conjugation of biological signals. Furthermore, compared to previous formulations, less material is now needed for gelation (e.g. 10 mg/ml LK6C instead of 25 mg/ml for LK6), which translates into significant cost savings and higher water contents. This class of material is suitable for biomedical applications, for example but not limited to, three-dimensional cell culture, tissue engineering, sensing and drug and gene delivery.

For `CC[C@H](C)[C@H](NC(=O)[C@H](CC(C)C)NC(C)=O)C(=O)N[C@H](C(=O)N[C@@H](C)C(=O)NCC(=O)N[C@@H](CCCCN)C(=O)N[C@@H](CS)C(=O)O)C(C)C` [LK6C, LIVAGKC] (Ac-LIVAGKC-OH), the “% of thiols remaining” value [1] was about 80%, the “% of thiols remaining” value [2] was about 50% and the skin sensitization (skins of guinea pigs) was “no sensitization”. For the same compound, the toxicity (V79) was “no significant toxicity”.

With Ac-IVKC the “increase of stiffness after oxidative crosslinking” value ([3]; 0.06% H2O2 in PBS) was “close to two orders”, the “stiffness, elastic modulus G'” value ([3]; gels crosslinked completely with 0.2% H2O2 in PBS) was about 1 MPa and the crosslinked fraction ([4]; 0.2% H2O2 in PBS) was 100%. For the same compound, the monomer content ([4]; absence of H2O2, PBS) was over 96% and the “duration cells remained viable (positive calcein staining)” value [5] was “at least ten days”.

With LIVAGK (L-form) [LK6] the “gel state after water soak” value [6] was “did not survive; also recorded: completely degraded” and the “concentration needed for gelation” value [7] was 25000 µg/mL.

Reference: US9687591B2, “Building stratified biomimetic tissues and organs using crosslinked ultrashort peptide hydrogel membranes” (Agency for Science, Technology and Research, priority 2010, dated 2017)
